From publication PMC7192608

T1: Rap1 BRCT domain (Saccharomyces cerevisiae, UniProt P11938 1-358)
T1 sequence: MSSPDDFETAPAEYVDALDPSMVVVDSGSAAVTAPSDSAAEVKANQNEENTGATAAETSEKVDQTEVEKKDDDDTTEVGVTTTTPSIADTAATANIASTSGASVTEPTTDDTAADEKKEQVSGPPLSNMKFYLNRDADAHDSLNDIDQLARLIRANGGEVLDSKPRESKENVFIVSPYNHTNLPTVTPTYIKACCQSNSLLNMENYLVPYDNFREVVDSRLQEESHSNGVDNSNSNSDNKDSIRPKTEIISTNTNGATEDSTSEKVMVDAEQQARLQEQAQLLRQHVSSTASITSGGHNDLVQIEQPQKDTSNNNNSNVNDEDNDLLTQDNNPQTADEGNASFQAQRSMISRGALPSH

T2: Rap1-DBD (Saccharomyces cerevisiae, UniProt P11938 360-598)
T2 sequence: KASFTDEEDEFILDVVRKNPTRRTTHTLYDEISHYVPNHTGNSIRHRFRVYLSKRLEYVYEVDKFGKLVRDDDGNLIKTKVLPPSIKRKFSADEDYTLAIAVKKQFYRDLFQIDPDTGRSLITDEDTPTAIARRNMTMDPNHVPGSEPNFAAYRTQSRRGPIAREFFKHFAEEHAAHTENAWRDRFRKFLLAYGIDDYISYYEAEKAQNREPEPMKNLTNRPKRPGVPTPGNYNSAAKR

T3: Rap1 RCT (C-terminal domain) (Saccharomyces cerevisiae, UniProt P11938 600-827)
T3 sequence: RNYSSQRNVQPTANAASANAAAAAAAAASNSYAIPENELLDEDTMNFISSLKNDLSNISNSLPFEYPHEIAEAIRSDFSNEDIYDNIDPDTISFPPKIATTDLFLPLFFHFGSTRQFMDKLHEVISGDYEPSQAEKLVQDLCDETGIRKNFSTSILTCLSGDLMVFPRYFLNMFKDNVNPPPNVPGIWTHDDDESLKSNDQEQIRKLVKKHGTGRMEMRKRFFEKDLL


Legend:
Assay in all cases: EMSA
[1] = target: T1, Rap1 BRCT domain
[2] = target: T2, Rap1-DBD
[3] = target: T3, Rap1 RCT (C-terminal domain)

Row | Binder | binding result [1] | Kd [2] [nM] | binding result [3]
1 | AATTCTGGGTGTGTGGGTGTGTGGGTGTGTGGGTGTGG (structured_DNA) [4-G3] | no binding | 28 | no binding
2 | TGGGTGTGTGGGTGTGTGGGTGTGTGGG (structured_DNA) [4-G3 no tail] |  | 22 | 
3 | TTGGGTGGGTGGGTGGGTT (structured_DNA) [T-loops] |  | 45 | 
